Measured values published in patent US20050090447A1, “Peptides that promote complement activation” (Baxter International Inc., priority 2003, published 2005).
Bridge positions count the residues as written; N and C are the ends. Ends that are not written are not given here.

Legend:
[1] = target: T1, C5 (Homo sapiens, UniProt P01031); assay: Phage clone binding to biotinylated C5 (neutravidin capture, anti-M13 antibody detection); conditions: phage clones, FIG. 1
T1 construct: purchased Advanced Research Technologies
Experimental: FIG. 1 is a bar graph depicting the binding of peptide #1, peptide #2, and peptide #3 to C5. […] Wild-type M13 phage without a peptide fused to the pill protein was used as a negative control for this assay.
To confirm that Peptides 1, 2, and 3 (Sequence I. D. Nos:1, 2, and 3, respectively) bind C5, the phage clones were tested in a binding assay with increasing amounts of phage incubated with constant biotinylated C5, captured on a neutravidin plate and detected with an anti-phage antibody. Increasing concentrations of each phage clone were incubated for 2 hours with 200 ng of biotinylated C5 in PBS containing 0.5% BSA. The phage bound C5 complex was captured on a neutravidin coated microplate for 20 minutes at room temperature and then washed well. A peroxidase labeled anti-M13 antibody (Pharmacia) was used to detect the amount of phage bound to C5 with OPD substrate.

[2] = test system: E. coli strain 07:K1:NM (ATCC 23503); assay: Bactericidal assay, complement-mediated killing in pooled human plasma, colony count; format: cell-based; conditions: 100 uM peptide, one hour 37° C.; plasma alone 71%
Experimental: FIG. 4 is a bar graph depicting bacteriocidal activity of peptides against E. coli O7:K1:NM. Controls were run with plasma alone, complement inactivated (heat inactivated) plasma, and PBS/0.5% BSA.
The ability of Peptides 1- 3 to enhance complement-mediated killing of bacteria was examined. A virulent strain of E. coli that was chosen for the assays. E. coli strain 07:K1:NM (ATCC 23503), a strain less susceptible to complement mediated killing than most strains of E. coli, were grown in LB media to an optical density (OD) at 600 nm between 0.3 to 0.4 at 37° C. The cells were washed and resuspended in PBS containing 0.5% BSA and the concentration of cells determined from the OD at 600 nm. The cells were diluted in PBS/0.5% BSA to a concentration of 2×10^5 cfu/mL and 100 ul of cells were added to 100 ul of pooled human plasma containing 100 uM of peptide. The sample was incubated for one hour at 37° C. 10 ul aliquots were removed before and after the incubation and bacterial survival was examined by the colony count method (counting cells on LB agar before and after incubation). Heat inactivated plasma (56° C., 30 min.), plasma with no peptide, and PBS/0.5% BSA were also incubated with the cells as controls.

[3] = test system: classical pathway; assay: Classical pathway hemolytic assay, antibody sensitized sheep erythrocytes in pooled human plasma; format: cell-based; conditions: disulfide bond reduced and cysteines alkylated; data not shown
Experimental: FIGS. 2A and 2B are bar graphs depicting percent hemolysis above control versus peptide concentration with peptides 1, 2, and 3 for classical pathway activation (FIG. 2A), and alternative pathway activation (FIG. 2B). Percent hemolysis above control is the percent lysis of erythrocytes for each peptide concentration minus the lysis of erythrocytes in the absence of peptide.
Activation of the classical and alternative pathway by the peptides was measured using standard hemolysis assays. For the classical pathway various concentrations of peptide were incubated with 50 ul pooled human plasma (diluted 1:30 with GVB++), 5×10^7 antibody sensitized sheep erythrocyte cells, and GVB++buffer to a final volume of 200 ul. The reaction was incubated at 37° C. for one hour and centrifuged. The percentage of lysis was determined by measuring the optical density of the supernatant at 414 nm. […] Lysis of the erythrocytes was not observed when the peptides were incubated in the absences of a source of complement (plasma). The peptides altered the activity of the complement protein(s) and increased the level of activation of the complement cascade resulting in an increase in hemolysis. Furthermore, when the disulfide bond of peptide 2 was reduced and the cysteines alkylated, enhancement of erythrocyte lysis was reduced (data not shown).

T1 sequence (P01031 19-1676): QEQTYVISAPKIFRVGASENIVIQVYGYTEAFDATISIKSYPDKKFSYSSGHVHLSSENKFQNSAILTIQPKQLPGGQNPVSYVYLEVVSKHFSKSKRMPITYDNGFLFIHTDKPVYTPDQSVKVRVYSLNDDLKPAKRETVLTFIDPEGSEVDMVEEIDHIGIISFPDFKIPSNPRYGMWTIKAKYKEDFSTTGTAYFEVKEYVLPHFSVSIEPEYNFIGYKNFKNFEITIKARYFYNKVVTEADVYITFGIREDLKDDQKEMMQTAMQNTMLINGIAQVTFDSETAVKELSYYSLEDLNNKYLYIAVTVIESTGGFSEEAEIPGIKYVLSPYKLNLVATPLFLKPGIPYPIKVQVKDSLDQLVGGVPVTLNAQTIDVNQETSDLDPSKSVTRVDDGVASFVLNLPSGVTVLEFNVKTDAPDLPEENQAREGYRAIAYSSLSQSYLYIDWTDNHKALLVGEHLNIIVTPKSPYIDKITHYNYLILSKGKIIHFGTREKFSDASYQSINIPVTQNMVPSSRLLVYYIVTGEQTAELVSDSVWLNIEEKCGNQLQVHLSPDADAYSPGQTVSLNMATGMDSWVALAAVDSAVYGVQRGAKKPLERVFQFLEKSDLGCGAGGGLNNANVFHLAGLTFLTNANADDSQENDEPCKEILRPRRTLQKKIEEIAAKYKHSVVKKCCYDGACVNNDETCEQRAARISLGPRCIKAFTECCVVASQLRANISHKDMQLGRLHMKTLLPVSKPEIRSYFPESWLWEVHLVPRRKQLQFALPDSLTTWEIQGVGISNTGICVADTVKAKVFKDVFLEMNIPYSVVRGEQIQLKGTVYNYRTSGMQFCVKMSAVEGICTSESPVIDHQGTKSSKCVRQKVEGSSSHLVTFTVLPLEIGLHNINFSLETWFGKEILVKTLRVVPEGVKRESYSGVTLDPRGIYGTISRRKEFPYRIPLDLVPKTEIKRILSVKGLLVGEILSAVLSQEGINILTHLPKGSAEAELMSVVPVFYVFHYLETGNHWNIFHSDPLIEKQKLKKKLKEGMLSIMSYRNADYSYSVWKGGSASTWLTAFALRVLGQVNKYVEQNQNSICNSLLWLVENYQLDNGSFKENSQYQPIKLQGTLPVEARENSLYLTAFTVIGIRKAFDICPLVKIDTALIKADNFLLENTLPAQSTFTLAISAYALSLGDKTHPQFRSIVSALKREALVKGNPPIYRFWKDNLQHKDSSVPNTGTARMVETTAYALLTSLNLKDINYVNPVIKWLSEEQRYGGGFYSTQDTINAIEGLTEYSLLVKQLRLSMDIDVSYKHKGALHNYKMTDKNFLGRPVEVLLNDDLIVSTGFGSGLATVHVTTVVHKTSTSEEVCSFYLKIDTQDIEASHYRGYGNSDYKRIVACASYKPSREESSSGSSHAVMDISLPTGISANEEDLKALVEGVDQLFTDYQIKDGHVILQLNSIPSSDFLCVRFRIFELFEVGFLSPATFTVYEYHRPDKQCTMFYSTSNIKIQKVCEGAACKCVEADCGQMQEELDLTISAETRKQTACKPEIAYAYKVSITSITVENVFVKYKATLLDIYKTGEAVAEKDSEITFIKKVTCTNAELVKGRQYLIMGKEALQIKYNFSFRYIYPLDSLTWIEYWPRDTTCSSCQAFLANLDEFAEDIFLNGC

| Sequence | relative affinity for C5 (rank order) [1] | bacterial survival [2] [%] | enhancement of erythrocyte lysis [3] |
| --- | --- | --- | --- |
| CLSAHHHMC (YCLSAHHHMCGGG; disulfide 2-10 (inferred)) [Peptide 1, synthetic form has added N terminal tyrosine and three C terminal glycines] | tightest relative affinity | 23 | – |
| CPGKASPWC (YCPGKASPWCGGG; disulfide 2-10 (inferred)) [Peptide 3, synthetic form has added N terminal tyrosine and three C terminal glycines] | then Peptide 3 | – | – |
| CPSSPPHMC (YCPSSPPHMCGGG; disulfide 2-10 (inferred)) [Peptide 2, synthetic form has added N terminal tyrosine and three C terminal glycines] | followed by Peptide 2 | – | reduced |
